Data on 15 molecules can be found in patent US20210171652A1 (University of Pennsylvania, published 2021).

For this assay, the target named is T1, Band 3 / glycophorin A (Wright b, Wrb epitope) on human red blood cells (human, UniProt P02724 20-150).
T1 construct: whole, on cells; also called Band3/GPA; AE1
T1 sequence 1: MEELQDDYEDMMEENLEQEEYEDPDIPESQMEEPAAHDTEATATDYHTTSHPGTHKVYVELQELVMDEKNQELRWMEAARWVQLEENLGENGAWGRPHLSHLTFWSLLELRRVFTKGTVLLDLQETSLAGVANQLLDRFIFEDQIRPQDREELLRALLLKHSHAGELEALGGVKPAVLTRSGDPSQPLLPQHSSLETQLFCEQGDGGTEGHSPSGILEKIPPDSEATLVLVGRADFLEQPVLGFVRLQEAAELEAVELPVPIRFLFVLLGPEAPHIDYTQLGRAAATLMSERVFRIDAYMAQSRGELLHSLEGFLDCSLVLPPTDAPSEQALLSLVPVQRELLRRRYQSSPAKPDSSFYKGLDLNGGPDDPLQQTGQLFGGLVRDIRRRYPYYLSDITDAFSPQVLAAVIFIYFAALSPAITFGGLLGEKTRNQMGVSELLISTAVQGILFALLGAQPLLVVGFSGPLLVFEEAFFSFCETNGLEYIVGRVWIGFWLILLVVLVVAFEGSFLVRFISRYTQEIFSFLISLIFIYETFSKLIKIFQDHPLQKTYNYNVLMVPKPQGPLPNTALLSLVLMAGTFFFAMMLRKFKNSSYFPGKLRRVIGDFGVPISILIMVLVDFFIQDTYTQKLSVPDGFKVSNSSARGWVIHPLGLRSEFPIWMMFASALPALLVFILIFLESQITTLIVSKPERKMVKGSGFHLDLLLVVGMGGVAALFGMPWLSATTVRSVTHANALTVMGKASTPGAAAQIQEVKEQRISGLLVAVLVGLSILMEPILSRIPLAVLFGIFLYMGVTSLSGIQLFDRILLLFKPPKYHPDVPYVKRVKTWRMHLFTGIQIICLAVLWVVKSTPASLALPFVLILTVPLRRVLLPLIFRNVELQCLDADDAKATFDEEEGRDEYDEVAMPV
T1 sequence 2: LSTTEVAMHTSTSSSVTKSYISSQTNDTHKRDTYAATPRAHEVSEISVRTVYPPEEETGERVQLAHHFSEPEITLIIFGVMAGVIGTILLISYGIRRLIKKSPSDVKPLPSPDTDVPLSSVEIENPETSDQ
The assay can be described thus: Fab/phage binding assays on human RBCs incl. rare RBC types lacking conserved antigens. As for the experimental part: An IgG Fab/phage display library was prepared from the peripheral blood lymphocytes of a hyperimmunized macaque using homologous human V-region oligonucleotides (Siegel D L, R. M., Lee H, Blancher A., Production of large repertories of macaque mAbs to human RBCs using phage display. Transfusion, 1999. 39(S10): p. 92S, which is incorporated herein by reference). Fab/phage specific for human RBCs were isolated by panning on intact human RBCs. Monoclonal Fab/phage were grown to produce antibodies for immunoassays and their corresponding DNA was extracted for sequencing. To identify target epitopes, antibodies were screened against RBCs of known serologic phenotypes, including rare cells lacking highly conserved antigens, using standard immunohematologic techniques (Roback, J. D., Technical Manual. 2014: American Association of Blood Banks (AABB), which is incorporated herein by reference.)
Using antibody phage display, we identified non-human-primate Fab antibody fragments to antigenic determinants on human RBCs. By panning phage libraries on human RBCs, we produced a Fab/phage preparation with >10⁷ RBC-specific clones capable of agglutinating human RBCs. By performing binding assays against rare RBC types lacking highly conserved antigens and epitopes, we identified the target antigens of >30 of these clones. At least 34 clones bound the Wright b (Wrb) epitope formed by a Band 3/GPA interaction, present on the RBCs of essentially 100% of the human population. The Wrb epitope, determined by the protein sequence of Band 3, is a site of association between Band 3 with GPA, and GPA expression is simultaneously required for its presence on the membrane (Huang C H, Reid M E, Xie S S, Blumenfeld 00. Human red blood cell Wright antigens: a genetic and evolutionary perspective on glycophorin A-band 3 interaction. Blood. 1996; 87(9):3942-3947). At least 3 other clones bound to a highly-conserved epitope Rh17(Hr0) on human RhCE protein, also present on essentially 100% of the human population. Both these targets are specific for erythroid lineage (Rojewski M T, Schrezenmeier H, Flegel W A. Tissue distribution of blood group membrane proteins beyond red cells: evidence from cDNA libraries. Transfus Apher Sci.

B1: KP2-09 Fab/phage clone (anti-Band 3, Wrb) (Fab, V domains shown)
VH: EVQLLESGPGLVRPSETLSLTCAVSGYSISSGYGWHWIRQPPGKGLESLGYIGGSRGNTNYNPSLKSRVTISTDTSKNQFSLKLRSVTAADTAVYYCARDSGYNTRYFDYWGQGVLVTVSS
VL: AAELTQSPATLSLSPGERATLSCRASQSVGSRLAWYQQKPGQAPRLLIYGASSRATGIPDRFSGSGSRTDFTLTISSLEPEDVGVYHCQQYNDLLPLTFGGGTKVEIK
In the case of B1, the binding result is reported as “binds”.

B2: KP2-11 Fab/phage clone (anti-Band 3, Wrb) (Fab, V domains shown)
VH: EVQLQLPGPGLVKPSETLSLTCTVSGSSLSSAYGWNWIRQPPGKGLEWIGSIGGSRDNTNYNPSLKRRVTISKDTSKNQFSLKLKSVTAADTAVYYCAQRGAYGYSYFDYWGQGVLVAVSS
VL: ELTLTQSPATLSLSPGETATLSCRASQSLGSRLAWYQQKPGQPPRLLIYGASTRATGIPDRFSGSGSRTDFTLTISSLEPEDVGVYHCQQYNDFPPLTFGGGTKVEIK
With B2, the binding result is listed as “binds”.

B3: KP3-08 Fab/phage clone (anti-Band 3, Wrb) (Fab, V domains shown)
VH: EVQLLESGPGLVKPSETLSLTCTVSGSSLSSAYGWNWIRQPPGKGLEWIGSIGGSRDNTNYNPSLKRRVTISKDTSKNQFSLKLKSVTAADTAVYYCAQRGAYGYSYFDYWGQGVLVAVSS
VL: ELTLTQSPATLSLSPGETATLSCRASQSLGGRLAWYQQKPGQAPRLLIYGASTRATGIPDRFSGSGSRTEFTLTIAGLEPEDVGVYHCQQYNDFLPLTFGGGTKVEIK
Consider B3, for which the binding result was “binds”.

B4: KP3-02 Fab/phage clone (anti-Band 3, Wrb) (Fab, V domains shown)
VH: EVQLLESGPGLVRPSETLSLTCAVSGYSISSGYGWHWIRQPPGKGLESLGYIGGSRGNTNYNPSLKSRVTISTDTSKNQFSLKLRSVTAADTAVYYCARDSGYNTRYFDYWGQGVLVTVSS
VL: AAELTQSPATLSLSPGETATLSCRASQSVGSNLAWYQQKPGQAPKLLVHSAYFRATGIPDRFSGSGSRTDFTLTISSLEPEDVGVYHCQQYNDLLPLTFGGGTKVEIK
Take B4: the binding result was “binds”.

B5: KP2-01 Fab/phage clone (anti-Band 3, Wrb) (Fab, V domains shown)
VH: EVQLLESGPGLVKPSETLSLTCAVSGDSISSGLGWSWIRQTPGKGLEWIGYIGGSRGNTNYNPSFKSRVTISRDTSKNQFSLRLSSMTAADTAVYYCARRAPYWGYSYLDYWGQGVLVTVSS
VL: AAELTQSPATLSLSPGETATLSCRASQSIGSSLAWYQQRPGQAPKLLVHSAYFRAAGIPDRFSGSGSRTDFTLTISSLEPEDVGVYHCQQYNDLLPLTFGGGTKVELK
Take B5: the binding result is on record as “binds”.

B6: KP2-02 Fab/phage clone (anti-Band 3, Wrb) (Fab, V domains shown)
VH: EVQLLESGPGLVKPSETLSLTCAVSGGSLSGGYDWSWIRQSSRKGLEWIGYIYDSRWTTNYNPSLKKRVTISIDTSKNQFSLNLKSVTAADTAVYYCARRGGYGASYFDLWGQGVLVTVSS
VL: AAELTQSPATLSLFPGETATLSCRASQSIGSHLAWYQQKPGQAPKLLVHSVSFRATGIPDRFRGSGSRTDFTLTISSLEPEDVGVYHCQQYNDLLPLTFGGGTKVEIK
As for B6, the binding result is “binds”.

B7: KP2-07 Fab/phage clone (anti-Band 3, Wrb) (Fab, V domains shown)
VH: EVQLLESGPGLVKPSETLSLTCAVSGDSISSGYGWHWIRQVPGRGLEWIGSIGGSRGTTNYNPSLKSRVTISEDTSKNQFSLSLRSVSAADTAVYFCARDSGYSFRYFDFWGQGVLVTVSS
VL: ELVMTQSPATLSLSPGETATLSCRASQSVGSNLAWYQQKPGQAPKLLVHSAYFRATGIPDRFSGSGSRTDFTLTISSLEPEDVGVYHCQQYNDLLPLTFGGGTKVEIN
Regarding B7, the binding result is given as “binds”.

B8: KP3-05 Fab/phage clone (anti-Band 3, Wrb) (Fab, V domains shown)
VH: EVQLLESGPGLVKPSETLSLTCTVSGSSLSSAYGWNWIRQPPGKGLEWIGSIGGSRDNTNYNPSLKRRVTISKDTSKNQFSLKLKSVTAADTAVYYCAQRGAYGYSYFDYWGQGVLVAVSS
VL: AAELTQSPATLSLSPGETATLSCRASQSVGSSLAWYQQKPGQAPKLLVHSAYFRATGIPDRFSGSGSRTDFTLTISSLEPEDVGVYHCHQYNDLLPLTFGGGTKVEIK
As for B8, the binding result was “binds”.

B9: KP2-08 Fab/phage clone (anti-Band 3, Wrb) (Fab, V domains shown)
VH: EVQLLESGPGLVKPSETLSLTCAVSGYSISSGYGWNWIRQPPGKGLEWIGSIGGSRDNTNYNPSLKSRVTLSKDTSKNHFSLRLRSVTAADTAVYYCARDGGYGSRYMDSWGQGVLVAVSS
VL: AAELTQSPATLSLSPGEAATLSCRASQSIGTSLAWYQQKPGQAPRLLVHSAYFRATGIADRFSGSGSRTDFTLTISSLEPEDVGVYYCQQYNDLLPLTFGGGTKVEIK
On to B9, for which the binding result is reported as “binds”.

B10: KP2-04 Fab/phage clone (anti-Band 3, Wrb) (Fab, V domains shown)
VH: EVQLLESGPGLVKPSETLSLTCAVSGYSLSSAYGWNWIRQSPGKGLEWIGSIGGSRDNVNYNPSLKRRVTISKDTSTNHFSLRLSSVTAADTAVYYCVRRATYGNSYFDSWGQGVQVTVSS
VL: ELTLTQSPATLSLSPGETATLSCRASQSVGSHLAWYQQKPGQAPKLLVHSAYFRATGIPDRFSGSGSRTDFTLTISSLEPEDVGVYHCQQYNDLLPLTFGGGTKVEIK
Consider B10, for which the binding result is on record as “binds”.

B11: KP3-18 Fab/phage clone (anti-Band 3, Wrb) (Fab, V domains shown)
VH: EVQLLEWGPGLVKPSETLSLTCAVSGYSLSSAYGWNWIRQSPGKGLEWIGSIGGSRDNVNYNPSLKRRVTISKDTSTNHFSLRLSSVTAADTAVYYCVRRATYGNSYFDSWGQGVQVTVSS
VL: ELTLTQSPATLSLSPGETATLSCRASQSVGSYLAWYQQKPGQAPKLLVHSAHFRATGIPDRFSGSGSRTDFTLTISSLEPEDVGVYHCQQYNDLLPLTFGGGTKVEIK
For B11, the binding result is listed as “binds”.

B12: KP3-13 Fab/phage clone (anti-Band 3, Wrb) (Fab, V domains shown)
VH: EVQLLESGPGLVRPSETLSLTCAVSGGSLSGGYDWSWIRQSPRKGLEWIGYIYDSRGTTNYNPSLKRRVTISIDTSKNQFSLNLKSVTAADTAVYYCARRGGYGASYFDLWGQGVLVTVSS
VL: AAELTQSPATLSLSPGETATLSCRASQSVGSNLAWYQQKPGQAPKLLVHSASVRATGIPDRFSGSGSRTDFTLTISSLEPEDVGVYHCQQYNDFFPLTFGGGTKVEIK
Turning to B12, the binding result is on record as “binds”.

B13: KP3-15 Fab/phage clone (anti-Band 3, Wrb) (Fab, V domains shown)
VH: EVQLLESGPGLVKPSETLSLTCTVSGSSLSSAYGWNWIRQPPGKGLEWIGSIGGNRDNTNYNPSLKRRVTISKDTSKNQFSLKLKSVTAADTAVYYCAQRGAYGYSYFDYWGQGVLVAVSS
VL: AAELTQSPATLSVSPGEAATLSCRASQTVGRNLAWYQQKPGQAPKLLVHSAHFRATGIPDRFSGSGSGTDFTLTISSLEPEDAGIYHCQQYNDLLPLTFGGGTKVEIK
For B13, the binding result is given as “binds”.

B14: KP3-16 Fab/phage clone (anti-Band 3, Wrb) (Fab, V domains shown)
VH: EVQLLESGPGLVKPSETLSLTCTVSGSSLSSAYGWNWIRQPPGKGLEWIGSIGGSRDNTNYNPSLKRRVTISKDTSKNQFSLKLKSVTAADTAVYYCAQRGAYGYSYFDYWGQGVLVAVSS
VL: AAELTQSPATLSLSPGETATLSCRASQSLGSRLAWYQQKPGQAPRLLIYGASTRATGIPDRFSGSGSRTDFTLTISSLEPEDVGVYHCQQYNDFLPLTFGGGTKVEIK
Turning to B14, the binding result is “binds”.

B15: KP2-06 Fab/phage clone (anti-Band 3, Wrb) (Fab, V domains shown)
VH: EVQLLESGPGLVKPSETLSLTCTVSGSSLSSAYGWNWIRQPPGKGLEWIGSIGGSRDNTNYNPSLKRRVTISKDTSKNQFSLKLKSVTAADTAVYYCAQRGAYGYSYFDYWGQGVLVAVSS
VL: AAELTQSPATLSLSPGETATLSCRASQSVGSSLAWYQQKPGQAPKLLVHSISVRATGIPDRFSGSGSRTDFTLTITSLEPEDVGVYHCQQYNDFFPLTFGGGTKVEIK
Turning to B15, the binding result was “binds”.
